Assay [1] addresses T1, Fc-Mer (MERTK Fc chimera) (human, UniProt Q12866 21-505).
T1 chain: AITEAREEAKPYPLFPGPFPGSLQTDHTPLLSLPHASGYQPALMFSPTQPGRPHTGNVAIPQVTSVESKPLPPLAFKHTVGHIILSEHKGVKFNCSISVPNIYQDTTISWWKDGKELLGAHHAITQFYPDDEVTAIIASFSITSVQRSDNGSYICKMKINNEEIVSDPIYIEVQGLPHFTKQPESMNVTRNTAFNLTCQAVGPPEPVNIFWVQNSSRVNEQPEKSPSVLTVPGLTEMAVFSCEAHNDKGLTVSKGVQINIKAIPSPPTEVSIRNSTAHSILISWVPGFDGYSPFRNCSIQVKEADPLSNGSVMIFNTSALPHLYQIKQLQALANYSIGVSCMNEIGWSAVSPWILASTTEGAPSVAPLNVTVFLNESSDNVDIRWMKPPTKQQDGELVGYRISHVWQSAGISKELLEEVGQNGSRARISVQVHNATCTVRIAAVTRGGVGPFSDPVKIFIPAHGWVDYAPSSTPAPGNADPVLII
Nature of the assay: SPR. (SPR reads the build-up and loss of mass on a sensor chip optically.)

For assay [2], the target named is T2, Gas6, recombinant human, His-tagged (human, UniProt Q14393 31-678).
T2 construct: human GAS6, recombinant, bought from R&D Systems; Limits and the end of the tag are in the vendor's data sheet; also called H6-tagged-GAS6; source: bought: R&D Systems (885-GSB-050)
T2 sequence (looked up): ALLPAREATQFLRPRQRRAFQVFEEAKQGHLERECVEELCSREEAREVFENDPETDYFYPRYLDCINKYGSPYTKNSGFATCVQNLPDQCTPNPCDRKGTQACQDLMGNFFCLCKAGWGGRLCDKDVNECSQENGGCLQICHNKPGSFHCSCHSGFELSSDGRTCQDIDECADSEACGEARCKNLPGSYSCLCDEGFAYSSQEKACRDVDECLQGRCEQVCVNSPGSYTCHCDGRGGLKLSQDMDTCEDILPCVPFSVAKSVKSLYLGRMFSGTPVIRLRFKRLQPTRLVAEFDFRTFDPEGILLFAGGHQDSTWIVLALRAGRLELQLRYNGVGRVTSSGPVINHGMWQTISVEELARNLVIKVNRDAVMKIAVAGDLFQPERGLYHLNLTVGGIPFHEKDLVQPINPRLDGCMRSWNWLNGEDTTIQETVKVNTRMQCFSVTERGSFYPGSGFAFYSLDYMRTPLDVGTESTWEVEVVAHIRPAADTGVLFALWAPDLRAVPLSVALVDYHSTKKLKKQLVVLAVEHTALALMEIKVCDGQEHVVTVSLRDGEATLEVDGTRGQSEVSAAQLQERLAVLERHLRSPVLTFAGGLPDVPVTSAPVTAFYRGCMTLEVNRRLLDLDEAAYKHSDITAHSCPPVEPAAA
Put plainly: SPR; Biacore T200, CM5 chip; Protein A amine-coupled (2300 RU), Fc-Mer (150 RU) or Fc-Axl (140 RU) captured; Gas6 or PGRN injected at 20 uL/min for 500 s, 1000 s dissociation; HBS-EP+ with 1.5 mM CaCl2 and 0.1% BSA; 1:1 kinetic model. The settings on record: both partners purified.

B1: Gas6, recombinant human, His-tagged (ligand)
chain: T2 sequence (looked up)
In the case of B1, in assay [1], the koff (in general, a measure of how fast the partners let go of each other) was 0.000888 s⁻¹.

B2: Fc-Mer (MERTK Fc chimera) (Fc fusion, human, UniProt Q12866 21-505, looked up)
chain: T1 chain
notes: human MERTK (Mer) part of the bought Fc chimera; Captured on Protein A by its Fc; As far as I recall the vendor's product is the extracellular domain of human Mer fused to human IgG1 Fc at the C-terminus; limits are in the vendor's data sheet; source: bought: R&D Systems (891-MR-100)
Consider B2, for which the Kd – broadly, the equilibrium constant for the complex coming apart – in assay [2] came to 27.7 nM.

Source of the values: article PMC12218935, “Opposing role of phagocytic receptors MERTK and AXL in Progranulin deficient FTD” (Communications Biology, 2025).
